According to patent EP1117419B1 (The University Of Southern California, dated 2010):

Legend:
[1] = target: canine platelet (GP)IIb/IIIa on canine platelets (platelet rich plasma) (canine, UniProt Q9TUN8 32-1036; A0A8I3PMU9 158-919)
[2] = target: human platelet membrane glycoprotein (GP)IIb/IIIa on human platelets (platelet rich plasma) (human, UniProt P08514 32-1039; P05106 27-788)
[3] = target: binding sites on unactivated human platelets; experiment: Scatchard analysis of CN binding to unactivated human platelets

B1: contortrostatin (CN), native homodimer purified from Agkistrodon contortrix contortrix venom (ligand)
chain: DAPANPCCDAATCKLTTGSQCADGLCCDQCKFMKEGTVCRRARGDDLDDYCNGISAGCPRNPFHA
Binder B1 has an IC50 [1] of 0.24 µg/mL, an IC50 [2] of 0.4 µg/mL and a Kd [3] of 37 nM.
